Laboratory results from US20150210767A1 (GlaxoSmithKline, published 2015).
Where a chain is given by its changes, count along the chain named.

T1: biotinylated recombinant human soluble TNFR1 (human, UniProt P19438 30-211, biotinylated (EZ-Link Sulfo-NHS-LC-Biotin), sites not stated)
T1 construct: extracellular domain; Captured on a streptavidin BIAcore chip; also called human sTNFR1; sTNFR1
T1 sequence (looked up): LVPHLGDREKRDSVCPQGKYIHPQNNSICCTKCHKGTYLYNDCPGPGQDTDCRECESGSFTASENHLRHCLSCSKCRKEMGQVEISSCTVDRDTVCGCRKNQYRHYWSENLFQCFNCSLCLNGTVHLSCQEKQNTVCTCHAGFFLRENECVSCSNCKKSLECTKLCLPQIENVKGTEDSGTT

T2: human TNFR1 on human umbilical vein endothelial cells (HUVECs) (human, UniProt P19438 30-455)
T2 sequence (looked up): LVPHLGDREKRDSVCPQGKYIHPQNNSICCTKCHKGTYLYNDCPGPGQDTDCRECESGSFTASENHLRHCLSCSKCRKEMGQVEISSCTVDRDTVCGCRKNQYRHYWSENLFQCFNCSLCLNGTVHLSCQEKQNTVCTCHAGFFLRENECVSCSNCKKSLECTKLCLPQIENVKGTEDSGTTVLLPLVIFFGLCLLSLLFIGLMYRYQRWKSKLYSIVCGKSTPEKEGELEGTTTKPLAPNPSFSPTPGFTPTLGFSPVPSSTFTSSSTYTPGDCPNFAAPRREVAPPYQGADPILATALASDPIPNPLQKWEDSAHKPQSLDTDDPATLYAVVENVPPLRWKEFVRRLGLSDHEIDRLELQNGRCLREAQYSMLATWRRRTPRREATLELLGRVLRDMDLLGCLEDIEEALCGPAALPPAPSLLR

B1: DMS5544 (bispecific antibody)
chain: EVQLLESGGGLVQPGGSLRLSCAASGFTFDKYSMGWVRQAPGKGLEWVSQISDTADRTYYAHSVKGRFTISRDNSKNTLYLQMNSLRAEDTAVYYCAIYTGRWVPFEYWGQGTLVTVSSASTDIQMTQSPSSLSASVGDRVTITCRASRPIGTTLSWYQQKPGKAPKLLILWNSRLQSGVPSRFSGSGSGTDFTLTISSLQPEDFATYYCAQAGTHPTTFGQGTKVEIKR
notes: Single-chain genetic fusion of the anti-TNFR1 VH dAb DOM1h-574-188, linker AST and the anti-serum albumin Vk dAb DOM7h-11-3; also called DOM1h-574-188 - Ala-Ser-Thr - DOM7h-11-3; anti-TNFR1/AlbudAb fusion
B2: DMS5535 (bispecific antibody)
chain: B1 chain with D30S, V104E
notes: Single-chain genetic fusion of the anti-TNFR1 VH dAb DOM1h-574-196, linker AST and the anti-serum albumin Vk dAb DOM7h-11-3; also called DOM1h-574-196 - Ala-Ser-Thr - DOM7h-11-3; anti-TNFR1/AlbudAb fusion
B3: DMS5542 (bispecific antibody)
chain: B1 chain with D30S, H62D
notes: Single-chain genetic fusion of the anti-TNFR1 VH dAb DOM1h-574-214, linker AST and the anti-serum albumin Vk dAb DOM7h-11-3; also called DOM1h-574-214 - Ala-Ser-Thr - DOM7h-11-3; anti-TNFR1/AlbudAb fusion
B4: DOM1h-574-188 (VHH)
VHH: EVQLLESGGGLVQPGGSLRLSCAASGFTFDKYSMGWVRQAPGKGLEWVSQISDTADRTYYAHSVKGRFTISRDNSKNTLYLQMNSLRAEDTAVYYCAIYTGRWVPFEYWGQGTLVTVSS
notes: Human VH immunoglobulin single variable domain (dAb), not camelid; also called anti-TNFR1 dAb DOM1h-574-188
B5: DOM1h-574-196 (VHH)
VHH: B4 VHH with D30S, V104E
notes: Human VH immunoglobulin single variable domain (dAb), not camelid; Monomer cloned in pDOM13 for expression in E. coli; also called anti-TNFR1 dAb DOM1h-574-196
B6: DOM1h-574-214 (VHH)
VHH: B4 VHH with D30S, H62D
notes: Human VH immunoglobulin single variable domain (dAb), not camelid; Monomer cloned in pDOM13 for expression in E. coli; also called anti-TNFR1 dAb DOM1h-574-214

Tests used:
[1] = biological target: T1, biotinylated recombinant human soluble …; assay: BIAcore (SPR), biotinylated human TNFR1 on streptavidin chip, fusion injected, mean of two experiments ± SD
Procedure: The affinity of the anti-TNFR1/AlbudAb fusions for human TNFR1 was determined by BIAcore. Briefly, the anti-TNFR1 molecules were injected over a streptavidin BIAcore chip on which biotinylated, human TNFR1 had been immobilised. Association and dissociation were determined at different concentrations of injected anti-TNFR1. […] The affinity for human TNFR1 as determined by BIAcore of the anti-TNFR1/AlbudAb fusion is slightly higher to that determined for the single anti-TNFR1 dAb used in each of the combination constructs.
The binding affinities for binding to recombinant human TNFR1 were assessed by BIAcore™ analysis. Analysis was carried out using Streptavidin coated (SA) chips (BIAcore, cat no. BR-1000-32). An SA chip was coated at low density using biotinylated hTNFR1. Examined molecules were injected over this surface at […] concentrations, i.e. 32, 16 (twice), 8, 4, 2, 1 and 0.5 nM, in random order using a flow rate of 50 μl/min. Between individual injections the surface was regenerated back to baseline using 10 mM glycine pH 2.0. Data were corrected for instrument artefacts using double referencing. Experiments were carried out on a BIAcore™ 3000 machine and data were analysed using the BIAevaluation software version 4.1, kₒₙ and koff were simultaneously fitted using 1:1 Langmuir binding model. For fitting purposes, the concentration range 1-32 nM was used for the monomers, while 0.5-16 nM was used for the AlbudAb fusion molecules. The binding data fitted well to the 1:1 model for all tested molecules. All KD values were calculated from kₒₙ and koff rates. BIAcore™ runs were carried out at 25° C.

[2] = biological target: T2, human TNFR1 on human umbilical vein …; assay: cell-based or functional assay
[3] = biological target: T1, biotinylated recombinant human soluble …; assay: BIAcore (SPR), biotinylated TNFR1 on SA chip; reference value of DOM1h-574-156 (150 pM) described previously
Procedure: (§1) To confirm the increase in accelerated stability four novel dAbs were also characterised according to the more extensive protocol described in example 1. In this protocol, the dAbs are incubated up to 48 h at 40° C., centrifuged and the remaining dAb in solution quantified using OD₂₈₀. […] To verify that the increase in stability is not at the expense of functional anti-TNFR1 activity of the dAb, the binding affinity to TNFR1 of the dAbs was determined by BIAcore, using biotinylated TNFR1 captured on a BIAcore SA chip. […] Therefore, these dAbs combine an increase in accelerated stability without compromising much on the affinity of the dAb for TNFR1.

[4] = biological target: T1, biotinylated recombinant human soluble …; assay: BIAcore (SPR), biotinylated human sTNFR1 on SA chip, dAb injected
Procedure: as §1
TABLE 7 Accelerated stability and affinity for human sTNFR1 for novel anti-TNFR1 dAbs. Purified dAb was incubated at 1 mg/ml in PBS at 40° C. for the indicated amounts of time. After that time, the percentage of residual protein in solution was determined by OD280 determination. Affinity for sTNFR1 was determined by BIAcore using coated sTNFR1 and injecting the dAb as described.

Row | Binder | Kd [1] [nM] | Mean EC50, inhibition of TNF-alpha-induced VCAM-1 expression in the HUVEC cell assay [2] [nM] | fold change of affinity against the parent dAb DOM1h-574-156 [3] [fold] | Kd [4] [nM]
1 | B1 | 0.18 | 4.83 |  | 
2 | B2 | 0.277 | 5.79 |  | 
3 | B3 | 0.202 | 6.23 |  | 
4 | B4 |  |  | ≤ 4 | 0.35
5 | B5 |  |  | ≤ 4 | 0.47
6 | B6 |  |  | ≤ 4 | 0.58
